Assay results from US20240374744.

Tested on: huHF(+)-DOX (huHF(+) protein nanoparticle-doxorubicin conjugate)
Sequence (chain, as listed by the source): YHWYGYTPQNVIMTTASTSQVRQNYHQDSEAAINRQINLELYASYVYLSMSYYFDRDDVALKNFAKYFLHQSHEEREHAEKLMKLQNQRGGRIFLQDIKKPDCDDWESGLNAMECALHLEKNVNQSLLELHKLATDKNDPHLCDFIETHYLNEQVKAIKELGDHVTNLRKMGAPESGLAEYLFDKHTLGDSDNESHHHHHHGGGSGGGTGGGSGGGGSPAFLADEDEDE

B1: cathepsin H (enzyme, UniProt P09668 116-335, looked up, species assumed)
Cathepsin H: YPPSVDWRKKGNFVSPVKNQGACGSCWTFSTTGALESAIAIATGKMLSLAEQQLVDCAQDFNNHGCQGGLPSQAFEYILYNKGIMGEDTYPYQGKDGYCKFQPGKAIGFVKDVANITIYDEEAMVEAVALYNPVSFAFEVTQDFMMYRTGIYSSTSCHKTPDKVNHAVLAVGYGEKNGIPYWIVKNSWGPQWGMNGYFLIERGKNMCGLAACASYPIPLV
B1 was tested, and the “cleavage of the conjugate and release of doxorubicin (native-PAGE, UV absorbance), enzyme in LPM mixture” value was “it was observed that the peptide was not specifically cleaved thereby the drug was not selectively released”.

B2: PrCP (prolylcarboxypeptidase) (enzyme, UniProt P42785 46-496, looked up, species assumed)
Lysosomal Pro-X carboxypeptidase: KNYSVLYFQQKVDHFGFNTVKTFNQRYLVADKYWKKNGGSILFYTGNEGDIIWFCNNTGFMWDVAEELKAMLVFAEHRYYGESLPFGDNSFKDSRHLNFLTSEQALADFAELIKHLKRTIPGAENQPVIAIGGSYGGMLAAWFRMKYPHMVVGALAASAPIWQFEDLVPCGVFMKIVTTDFRKSGPHCSESIHRSWDAINRLSNTGSGLQWLTGALHLCSPLTSQDIQHLKDWISETWVNLAMVDYPYASNFLQPLPAWPIKVVCQYLKNPNVSDSLLLQNIFQALNVYYNYSGQVKCLNISETATSSLGTLGWSYQACTEVVMPFCTNGVDDMFEPHSWNLKELSDDCFQQWGVRPRPSWITTMYGGKNISSHTNIVFSNGELDPWSGGGVTKDITDTLVAVTISEGAHHLDLRTKNALDPMSVLLARSLEVRHMKNWIRDFYDSAGKQH
With B2 the “cleavage of the conjugate and release of doxorubicin (native-PAGE, UV absorbance), enzyme in LPM mixture” value was “it was observed that the peptide was not specifically cleaved thereby the drug was not selectively released”.
